Results taken from patent US7470668B2, “Method of use of specific natriuretic peptide receptor c ligands, transgenic non-human mammals expressing specific natriuretic peptide receptor c antagonists and cells thereof” (Enobia Pharma Inc., priority 2005, dated 2008).
No end group written: not given here.

T1: NPR-C (Homo sapiens, UniProt P17342)
T1 construct: expressed in transfected cells; host or cells: HEK293, transient, pCDNA1.1 (CMV promoter)
T1 sequence (P17342 27-541): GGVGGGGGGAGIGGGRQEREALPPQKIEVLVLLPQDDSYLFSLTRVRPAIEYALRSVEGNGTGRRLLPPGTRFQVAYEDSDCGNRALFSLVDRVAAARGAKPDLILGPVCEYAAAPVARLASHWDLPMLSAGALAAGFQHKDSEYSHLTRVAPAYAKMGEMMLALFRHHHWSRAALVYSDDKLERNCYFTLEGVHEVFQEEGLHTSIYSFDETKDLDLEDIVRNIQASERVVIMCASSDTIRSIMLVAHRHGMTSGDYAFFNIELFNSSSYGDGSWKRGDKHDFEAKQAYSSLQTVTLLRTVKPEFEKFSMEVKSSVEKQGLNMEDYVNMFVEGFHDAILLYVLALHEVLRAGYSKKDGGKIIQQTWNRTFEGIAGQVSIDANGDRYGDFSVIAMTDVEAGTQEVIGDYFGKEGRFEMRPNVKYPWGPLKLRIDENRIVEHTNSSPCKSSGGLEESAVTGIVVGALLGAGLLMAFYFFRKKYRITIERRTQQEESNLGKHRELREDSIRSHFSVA

T2: human GC-B (Homo sapiens, UniProt P20594)
T2 construct: expressed in transfected cells; host or cells: HEK293, transient, pCDNA1.1 (CMV promoter)
T2 sequence (P20594 23-1047): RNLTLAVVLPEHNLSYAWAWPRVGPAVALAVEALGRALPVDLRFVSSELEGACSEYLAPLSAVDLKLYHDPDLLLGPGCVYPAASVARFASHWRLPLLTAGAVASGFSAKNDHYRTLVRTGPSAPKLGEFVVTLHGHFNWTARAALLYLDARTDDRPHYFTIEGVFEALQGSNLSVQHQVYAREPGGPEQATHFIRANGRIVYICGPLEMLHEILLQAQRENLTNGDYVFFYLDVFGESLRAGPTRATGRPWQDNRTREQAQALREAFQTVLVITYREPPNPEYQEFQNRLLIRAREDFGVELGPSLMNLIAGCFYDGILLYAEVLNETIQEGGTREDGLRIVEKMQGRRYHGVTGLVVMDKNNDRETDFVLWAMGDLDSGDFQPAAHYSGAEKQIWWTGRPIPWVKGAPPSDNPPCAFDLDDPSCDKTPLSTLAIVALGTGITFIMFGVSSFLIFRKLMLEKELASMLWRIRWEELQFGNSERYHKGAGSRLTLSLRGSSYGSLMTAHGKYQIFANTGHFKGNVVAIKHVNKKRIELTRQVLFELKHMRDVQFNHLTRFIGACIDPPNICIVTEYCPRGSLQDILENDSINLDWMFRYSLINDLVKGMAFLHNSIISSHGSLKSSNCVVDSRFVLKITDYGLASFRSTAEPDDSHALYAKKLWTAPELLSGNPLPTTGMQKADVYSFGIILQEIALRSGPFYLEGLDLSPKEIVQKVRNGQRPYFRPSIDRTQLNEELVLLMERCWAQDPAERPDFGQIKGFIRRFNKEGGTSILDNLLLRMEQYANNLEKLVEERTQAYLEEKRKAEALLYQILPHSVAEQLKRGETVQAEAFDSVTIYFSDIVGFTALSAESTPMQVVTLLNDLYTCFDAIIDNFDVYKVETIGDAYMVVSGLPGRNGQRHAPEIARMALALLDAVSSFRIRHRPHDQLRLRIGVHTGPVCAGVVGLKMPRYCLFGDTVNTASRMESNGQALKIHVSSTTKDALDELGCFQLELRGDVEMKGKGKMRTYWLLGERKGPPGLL

T3: rat GC-A (Rattus norvegicus, UniProt P18910)
T3 construct: expressed in transfected cells; host or cells: HEK293, transient, CMV-driven pBK plasmid (gift of Dr. A. De Léan)
T3 sequence (P18910 29-1057): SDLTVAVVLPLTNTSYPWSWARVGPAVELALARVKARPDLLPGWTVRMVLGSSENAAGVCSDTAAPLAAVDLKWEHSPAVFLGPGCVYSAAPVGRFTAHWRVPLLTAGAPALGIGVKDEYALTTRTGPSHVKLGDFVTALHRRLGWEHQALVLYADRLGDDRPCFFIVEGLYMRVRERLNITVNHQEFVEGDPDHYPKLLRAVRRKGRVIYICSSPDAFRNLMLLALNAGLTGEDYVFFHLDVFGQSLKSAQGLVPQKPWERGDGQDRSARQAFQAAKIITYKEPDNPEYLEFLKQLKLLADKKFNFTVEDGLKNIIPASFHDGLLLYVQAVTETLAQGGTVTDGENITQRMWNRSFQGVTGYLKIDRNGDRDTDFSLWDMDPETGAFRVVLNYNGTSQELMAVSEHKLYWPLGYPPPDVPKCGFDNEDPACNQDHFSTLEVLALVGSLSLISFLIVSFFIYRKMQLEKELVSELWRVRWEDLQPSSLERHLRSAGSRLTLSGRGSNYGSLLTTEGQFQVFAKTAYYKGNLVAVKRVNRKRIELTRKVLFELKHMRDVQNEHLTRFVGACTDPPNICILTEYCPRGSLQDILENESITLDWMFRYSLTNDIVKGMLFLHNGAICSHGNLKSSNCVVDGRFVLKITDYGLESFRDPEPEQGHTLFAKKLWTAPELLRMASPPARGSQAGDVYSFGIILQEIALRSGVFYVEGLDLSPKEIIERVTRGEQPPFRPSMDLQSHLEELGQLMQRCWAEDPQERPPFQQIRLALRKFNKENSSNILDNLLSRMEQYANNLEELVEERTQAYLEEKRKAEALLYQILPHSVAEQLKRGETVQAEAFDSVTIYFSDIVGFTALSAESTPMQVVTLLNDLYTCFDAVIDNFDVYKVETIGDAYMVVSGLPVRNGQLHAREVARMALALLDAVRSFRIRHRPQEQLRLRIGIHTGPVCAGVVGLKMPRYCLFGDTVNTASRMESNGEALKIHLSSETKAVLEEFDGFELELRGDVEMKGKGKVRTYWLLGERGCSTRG


What was measured:
NPR-C = target: T1, NPR-C; assay: Competition of PLAP-Ostn binding on NPR-C over-expressing cells; conditions: ~30 nM PLAP-Ostn, NPR-C transfected cells; read-out: concentration competing off 50% of the binding of PLAP-mOstn
Excerpt: (§1) The expression plasmid for rat GC-A containing the entire coding sequence cloned between the NheI-KpnI sites of CMV-driven pBK plasmid (Stratagene, La Jolla, Calif.) was kindly provided by Dr. A. De Léan (Département de Pharmacologie, Université de Montréal). The human NPR-C and GC-B coding sequences were amplified by RT-PCR from human embryonic kidney polyA RNA (Clontech, Palo Alto, Calif.) with the following primer pairs: NPR-C-5′-[…]-3′(forward) (SEQ ID NO: 74) and 5′-[…]-3′ (SEQ ID NO: 75) (reverse); GC-B-5′-[…]-3′ (SEQ ID NO: 76) (forward) and 5′-[…]-3′ (SEQ ID NO: 77) (reverse). The resulting PCR products were then cloned downstream of the CMV-promoter into the pCDNA1.1 plasmid (Invitrogen, Burlington, ON, Canada). All constructs were validated by DNA sequencing.

human GC-B = target: T2, human GC-B; assay: PLAP-Ostn binding to GC-B transfected HEK293 cells; conditions: cells overexpressing GC-B
Excerpt: as §1
(§2) To analyze the potential binding of Ostn to natriuretic receptors, a fusion protein (PLAP-Ostn) (FIG. 6) was generated as described above. This fusion protein comprised an N-terminal secreted placental alkaline phosphatase (PLAP) moiety linked to mature mouse Ostn (residues 29-130) (SEQ ID NO: 62). Conditioned media containing PLAP-mOstn was used to assess Ostn binding on transiently transfected cells.
(§3) Expression vectors for the coding sequence of GC-A, GC-B and NPR-C were constructed, transfected into human embryonic kidney (HEK) 293 cells and the cells incubated with either 37 nM PLAP or the PLAP-Ostn fusion. […]

rat GC-A = target: T3, rat GC-A; assay: PLAP-Ostn binding to GC-A transfected HEK293 cells; conditions: cells overexpressing GC-A (not shown)
Excerpt: as §1, §2, §3

| IC50 (NPR-C) [nM] | specific binding (human GC-B) | specific binding (rat GC-A) | Molecule |
| --- | --- | --- | --- |
| 1 to 10 | – | – | YDHSKKRFGIPMDRIGRNRLSNSR-NH2 [Ostn[107-129]] |
| – | No specific binding | No specific binding | PLAP-mOstn: fusion protein: N-terminal secreted placental alkaline phosphatase moiety linked to mature mouse Ostn residues 29-130 (SEQ ID NO: 70) (protein) DAAQPARRARRTYEAYVRSSGIIPVEEENPDFWNREAAEALGAAKKLQPAQTAAKNLIIFLGDGMGVSTVTAARILKGQKKDKLGPEIPLAMDRFPYVALSKTYNVDKHVPDSGATATAYLCGVKGNFQTIGLSAAARFNQCNTTRGNEVISVMNRAKKAGKSVGVVTTTRVQHASPAGTYAHTVNRNWYSDADVPASARQEGCQDIATQLISNMDIDVILGGGRKYMFPMGTPDPEYPDDYSQGGTRLDGKNLVQEWLAKRQGARYVWNRTELMQASLDPSVTHLMGLFEPGDMKYEIHRDSTLDPSLMEMTEAALRLLSRNPRGFFLFVEGGRIDHGHHESRAYRALTETIMFDDAIERAGQLTSEEDTLSLVTADHSHVFSFGGYPLRGSSIFGLAPGKARDRKAYTVLLYGNGPGYVLKDGARPDVTESESGSPEYRQQSAVPLDEETHAGEDVAVFARGPQAHLVHGVQEQTFIAHVMAFAACLEPYTACDLAPPAGTTDAAHPGYLDLASQEFGTASLQSPPTAREEKSATELSAKLLRLDDLVSLENDVFETKKKRSFSGFGSPLDRLSAGSVEHRGKQRKAVDHSKKRFGIPMDRIGRNRLSSSRG |
